Experimental data taken from patent US20220033904A1 (CHILDREN S MEDICAL CENTER, published 2022).
Blank lines part the entries; values can stand above or below the binder they belong to.

Legend:
FZD5 = biological target: T1, FZD5
T1 chain: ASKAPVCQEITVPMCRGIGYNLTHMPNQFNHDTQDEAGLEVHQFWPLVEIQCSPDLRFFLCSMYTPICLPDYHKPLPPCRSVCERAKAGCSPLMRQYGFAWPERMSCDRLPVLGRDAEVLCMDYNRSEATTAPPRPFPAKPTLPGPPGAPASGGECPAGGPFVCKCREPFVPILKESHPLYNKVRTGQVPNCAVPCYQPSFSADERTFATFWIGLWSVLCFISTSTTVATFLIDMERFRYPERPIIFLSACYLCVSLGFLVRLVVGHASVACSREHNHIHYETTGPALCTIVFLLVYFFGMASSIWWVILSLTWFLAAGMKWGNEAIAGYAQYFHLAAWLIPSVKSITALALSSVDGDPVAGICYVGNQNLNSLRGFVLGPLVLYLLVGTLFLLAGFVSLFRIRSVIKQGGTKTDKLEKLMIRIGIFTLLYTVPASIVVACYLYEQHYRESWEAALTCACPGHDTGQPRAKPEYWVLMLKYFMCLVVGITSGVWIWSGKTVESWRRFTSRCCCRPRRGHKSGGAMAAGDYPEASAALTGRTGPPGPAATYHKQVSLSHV

LRP6 = biological target: T2, LRP6 (human, UniProt O75581 20-1613); experiment: co-IP, immunoblot (FIG. 3F)
T2 construct: whole, on cells; The legend says 'endogenous FZD5 but not LRP6'
T2 sequence (O75581 20-1613): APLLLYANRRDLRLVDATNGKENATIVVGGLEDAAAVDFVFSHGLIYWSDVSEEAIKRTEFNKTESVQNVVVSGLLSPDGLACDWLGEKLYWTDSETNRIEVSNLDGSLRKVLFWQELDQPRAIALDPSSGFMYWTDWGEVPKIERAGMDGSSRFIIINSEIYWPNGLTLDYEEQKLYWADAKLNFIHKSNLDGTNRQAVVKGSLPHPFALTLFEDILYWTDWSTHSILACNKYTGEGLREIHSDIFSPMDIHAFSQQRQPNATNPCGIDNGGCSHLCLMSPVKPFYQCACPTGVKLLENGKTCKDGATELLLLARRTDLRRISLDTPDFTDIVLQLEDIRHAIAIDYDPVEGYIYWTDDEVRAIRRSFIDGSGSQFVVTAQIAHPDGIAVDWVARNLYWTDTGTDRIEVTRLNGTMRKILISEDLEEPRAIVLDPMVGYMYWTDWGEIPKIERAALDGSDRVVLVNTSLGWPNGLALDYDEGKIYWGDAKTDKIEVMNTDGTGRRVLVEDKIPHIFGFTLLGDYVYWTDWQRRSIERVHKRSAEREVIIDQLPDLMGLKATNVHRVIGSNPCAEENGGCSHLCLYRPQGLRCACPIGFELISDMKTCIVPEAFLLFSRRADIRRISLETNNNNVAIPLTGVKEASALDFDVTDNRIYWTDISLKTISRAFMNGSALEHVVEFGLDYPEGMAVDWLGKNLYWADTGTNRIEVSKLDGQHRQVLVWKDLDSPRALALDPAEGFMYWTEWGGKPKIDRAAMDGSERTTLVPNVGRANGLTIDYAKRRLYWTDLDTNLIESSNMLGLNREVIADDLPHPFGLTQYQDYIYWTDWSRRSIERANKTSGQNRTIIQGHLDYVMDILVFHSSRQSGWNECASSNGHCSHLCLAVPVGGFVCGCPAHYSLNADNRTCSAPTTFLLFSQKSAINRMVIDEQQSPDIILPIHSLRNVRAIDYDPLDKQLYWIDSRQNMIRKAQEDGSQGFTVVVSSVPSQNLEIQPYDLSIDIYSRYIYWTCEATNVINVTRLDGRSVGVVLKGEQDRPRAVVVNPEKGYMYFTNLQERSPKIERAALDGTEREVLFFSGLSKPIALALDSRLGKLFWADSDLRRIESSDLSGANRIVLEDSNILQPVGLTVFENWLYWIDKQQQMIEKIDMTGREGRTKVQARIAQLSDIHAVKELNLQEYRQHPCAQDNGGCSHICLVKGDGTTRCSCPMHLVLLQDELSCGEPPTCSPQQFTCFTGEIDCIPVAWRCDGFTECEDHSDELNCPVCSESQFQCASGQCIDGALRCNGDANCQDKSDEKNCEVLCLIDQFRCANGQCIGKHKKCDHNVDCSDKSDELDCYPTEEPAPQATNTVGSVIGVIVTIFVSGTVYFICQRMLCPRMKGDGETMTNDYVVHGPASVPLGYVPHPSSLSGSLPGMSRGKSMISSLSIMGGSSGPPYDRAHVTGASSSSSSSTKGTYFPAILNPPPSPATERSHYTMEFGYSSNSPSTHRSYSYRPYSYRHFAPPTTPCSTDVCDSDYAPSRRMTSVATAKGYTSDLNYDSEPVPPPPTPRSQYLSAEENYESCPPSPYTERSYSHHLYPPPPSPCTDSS

USP8N = biological target: T3, USP8N (UniProt P40818 1-714, limits assumed); experiment: co-IP, immunoblot (FIG. 5C)
T3 construct: domain: USP8 N terminus; also called USP8 N terminus; N-terminal half of USP8
T3 sequence (looked up): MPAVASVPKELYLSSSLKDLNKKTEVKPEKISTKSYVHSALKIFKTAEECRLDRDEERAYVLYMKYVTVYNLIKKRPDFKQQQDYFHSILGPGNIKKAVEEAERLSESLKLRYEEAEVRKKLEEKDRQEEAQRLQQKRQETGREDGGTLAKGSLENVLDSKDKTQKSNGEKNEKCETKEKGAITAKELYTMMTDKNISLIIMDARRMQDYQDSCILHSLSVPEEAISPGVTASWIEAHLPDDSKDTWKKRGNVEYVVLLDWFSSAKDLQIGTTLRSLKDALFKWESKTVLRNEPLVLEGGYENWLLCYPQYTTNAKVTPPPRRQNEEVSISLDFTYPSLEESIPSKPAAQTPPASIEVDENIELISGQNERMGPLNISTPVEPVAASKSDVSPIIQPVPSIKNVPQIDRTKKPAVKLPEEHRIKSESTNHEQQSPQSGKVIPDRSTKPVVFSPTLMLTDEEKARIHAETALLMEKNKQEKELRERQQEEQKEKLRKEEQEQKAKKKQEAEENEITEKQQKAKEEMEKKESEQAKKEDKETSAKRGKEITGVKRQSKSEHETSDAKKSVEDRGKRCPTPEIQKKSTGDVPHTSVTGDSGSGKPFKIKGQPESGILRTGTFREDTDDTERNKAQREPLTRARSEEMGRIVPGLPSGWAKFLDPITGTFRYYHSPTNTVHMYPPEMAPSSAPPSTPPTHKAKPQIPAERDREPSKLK

B1: USP8C (protein)
chain: RSYSSPDITQAIQEEEKRKPTVTPTVNRENKPTCYPKAEISRLSASQIRNLNPVFGGSGPALTGLRNLGNTCYMNSILQCLCNAPHLADYFNRNCYQDDINRSNLLGHKGEVAEEFGIIMKALWTGQYRYISPKDFKITIGKINDQFAGYSQQDSQELLLFLMDGLHEDLNKADNRKRYKEENNDHLDDFKAAEHAWQKHKQLNESIIVALFQGQFKSTVQCLTCHKKSRTFEAFMYLSLPLASTSKCTLQDCLRLFSKEEKLTDNNRFYCSHCRARRDSLKKIEIWKLPPVLLVHLKRFSYDGRWKQKLQTSVDFPLENLDLSQYVIGPKNNLKKYNLFSVSNHYGGLDGGHYTAYCKNAARQRWFKFDDHEVSDISVSSVKSSAAYILFYTSLGPRVTDVAT
deubiquitination (ubiquitylation assay) (SMO): USP8C promoted deubiquitination of both FZD5 and SMO
deubiquitination (ubiquitylation assay) (FZD5): USP8C promoted deubiquitination of both FZD5 and SMO

binding result (LRP6): no binding
B2: TMEM79-Flag (other)
chain: MTEPETLALLDMKEPETPEKSPPQALVLQSEEEGGTESPGTESLRVGSSVGSPIVREGPEDGPDSTISEAATLPWGTDPHPSAPLPDPPGWRDIEPEPLESEAPTKSEEPFKEDANLLPEKTVRAFVPIDLQCIERKPQEERILHRDAGPGELRNFLPARLSHPEPPERKWAEAVVRPPGRSCGGCGSCGGREALRAVASVVAALIFFPCLLYGAYAFLPFDAPRLPTMSSRLVYTLRCGVFATFPIVLGLLVYGLSLLCFSALRPFGEPRREVEIHRQYVAQSVQLFILYFFNLAVLSTYLPQDTLKLLPLLTGLFAISRLIYWLTFAVGRSFRGFGYGLTFLPLLAMLVWNLYYMFVVEPERMLTASESRLDYPDHARSVSDYRPRSWG
notes: Expressed in HEK293T cells; co-IP from lysates; not shown: Flag tag at the C-terminus

binding result (USP8N): no binding
B3: TMEM79 (other)
chain: B2 chain
notes: It was expressed in HEK293T cells and tested by co-IP from lysates; also called Mattrin; full length TMEM79; not shown: Myc or Flag tag or both at the C-terminus
